Biological target: SlNSP2-GST (Solanum lycopersicum (tomato), UniProt A0A3Q7ITG8 1-487)
Test: EMSA

B1: pSlABCG44-WT (dsDNA)
DNA 1: GAGTGAATTTGTTTGGTTCAATTTTGTCC
DNA 2: GGACAAAATTGAACCAAACAAATTCACTC
  binding result: no binding

Reference: article PMC11910882
